We go through 1 molecule from patent US20250197505A1 (DREN BIO, published 2025).

The target of this assay is T1, cynomolgus CD94 expressed on HEK293 cells (cynomolgus monkey, UniProt Q68VD4 1-179).
T1 construct: also called cyno-CD94; cynomolgus monkey CD94
T1 sequence: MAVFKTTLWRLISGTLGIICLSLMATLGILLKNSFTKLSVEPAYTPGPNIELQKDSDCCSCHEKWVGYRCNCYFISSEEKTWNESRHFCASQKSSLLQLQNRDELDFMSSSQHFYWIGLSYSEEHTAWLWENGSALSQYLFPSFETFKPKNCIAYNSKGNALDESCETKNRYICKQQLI
Briefly: flow cytometry, cynomolgus CD94-expressing HEK293 cells. From the text: Anti-CD94 hybridoma supernatants were screened on cynomolgus CD94-expressing HEK293 cells by flow cytometry for cross-reactivity to cynomolgus CD94. HP-3D9 is a commercial anti-CD94 antibody that was used as a negative control. Mouse IgG1, IgG2a, IgG2b and IgG3 were used as negative controls. […] Commercially available anti-CD94 antibodies were used to test cynomolgus cross-reactivity. 18H3 was used as a positive control. The MFI of each antibody was normalized to the MFI of its respective isotype.
Cynomolgus CD94-expressing HEK293 cells were seeded in 96-well plates at a density of 100,000 cells per well, incubated with cell viability dye (Thermo Fisher) for 30 minutes on ice and protected from light. The cells were washed once with FACS buffer (PBS with 2% IgG low FBS). Hybridoma supernatants, anti-CD94 antibodies and isotype controls were incubated with cells for 30 minutes on ice and protected from light. […] After incubation, the cells received a final wash in FACS buffer before quantification on the Cytoflex (Beckman Coulter). All data acquisition and fluorescence compensation were performed using CytoFlex (Beckman Coulter, Atlanta, GA). […] CD94 expression was then quantified on this population. […]

B1: anti-CD94 antibody clone 18H3 (antibody, V domains shown)
VH: EVQLVQSGAEVKKPGESLKISCKGSGYRFTSYWIGWVRQMPGKGLEWMGIIYPGDSDTRYSPSFQGQVIISADKSITTAFLQWSSLKASDTAMYYCARPFDYGGSPGYFDYWGQGTLVTVSS
VL: DIQMTQSPSTLSASVGDRVTITCRASQSIRSWLAWYQQKPGKAPKLLIYKASSLESGVPSRFSGSGSGTEFTLTISSLQPDDFATYYCQQYNTFWTFGQGTKVEIK
notes: also called 18H3-AF647
For B1, the binding result was “binds”.
